The domain aggregation screens of Martell et al. (2025)

Assay: soluble fraction after stress (log2 fold change); higher = more stays soluble; pooled small domains, quantitative proteomics
Conditions: stress: 75 degC
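Further: 20 min heating vs room temperature control held 20 min.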

Sequence	soluble fraction (log2)
HMKAPLTFVIEGKEYEAFDQYKTGAELKQLAGIPLDTELFLSISKPYQDELIENEKQVNLARPETEYFFVK	0.522
HMKAQTVPQFVGMTMTEAEEKASELGITLIEGAVVDSVEPKDTILTQDVDEGTEITGKMEIMVTISS	0.324
HMKARLRRVFQIYYGDAYSIMKALKETFPLQTIVHEPRTNSIVVDTPDEETATKIGDVVSAL	-0.771
HMKDANIQIGKRLREARLNMNLEKSEIADVLGVTVEHYRKLEAGVMGISVDKVLTLYHKYGIDPTYLITG	-3.36
HMKDEGSLKVIGQMVVIGIPQSEAKRFANTYTVAQIRAALQYTQKRSEDKNASKLENVAAYFRQALVRNWG	-2.57
HMKDHKSKWMAKTELDSIAKNLSKKHAISLDYEEDGTRFYAGGQSPLGIGRLFTVFVAPRNGHWSDQLR	0.194
HMKDLIGEAKAKELALGHAKLSASDVTFIHVELDWENGRRVYDVEFYSGAKEYDYEIDAKTGEIVSFDY	-1.23
HMKDLQHLVGEKGTTVTPLRPSGIALIKGSRYDVVSEGSFIQQGVAVEVIKVEGRRVVVSPLQED	-0.722
HMKDLSMPDVMGSSLNDAKKALTELGIMDITVRYVESGSSEGSIVGMEPPAGSKFAADGKVVLQVSSGS	0.542
HMKDMKISTQNILKELATNYPDQTAFRKNVIESTAKSMGYTGKDFYPMLTAETRVKIGTYDLSALLQTV	-0.38
HMKDPSFELMSVAESFYRSGNVDHAVYALEKYLEVYADGDYTDRAHDLLSQARKGLTYPHGYPPLQI	-1.26
HMKDRDISNAVLNILSKDSDHNYNYKQIASVLGVKDPFVRKRIVSVLAQLTKNGQLEEISRGKYQIKN	-0.478
HMKDRNISSSVLEILSKDPDHTYNYKQIAALLGVKDAFIRKRIVTLLAQLAKDGHLDEISRGKYQIK	-1.22
HMKDVVAPMSGRVVRLMVAAGDEVVKRQALVVVEAMKMENVLTAPKEGRIKKVPVREGMTVEVGQTLVSFE	-1.88
HMKDYKSALQELIQSGDKRVISYHTLKETGPSHNREFEAAVKLDGNIILGVGKGKTKKEAEQNAAHEALKK	-0.0221
HMKDYKSSLQERVQAVGGGQLIYRVNREEGPDHSKTFYMDLFLGDRLIGTGSGRNKKQAEQQAAKEAIERG	-0.283
HMKDYKTIFQELIQKKHKTSPIYKSYEYNDMFKAEVYVNDKSFADGIGKSKKEAETDAAKKALEKIEMA	-0.0428
HMKDYQGEISVVASGERIDVYLFNYFNLFSRTKIKNHIKNGNILVNENIISPSYILKQNDKIAFNLGAPY	-2.27
HMKDYQGNILIQSEGDRIDKFLFKYFNSFSRTKIKNHIINGNILVNDKNTIPAYVLKINDKISYDLSTSVK	-1.9
HMKEAITVIGGKNNITFDASAQAEIGIYSMDGVQIQKKTISDNERIDLPAGMYVVTVKTGQANVSKVVVV	-0.553
HMKEDSTIIERIISNLSSASLKTQKAFEYKLTDLMFRFSEGEYEWSSAMEVIREELLPFLNK	0.0891
HMKEETEMVTIPDVTGKPLTEAANLLREAKLDYLAESTGTSVTKQMPLPGAEVMVNTTVLLYTG	0.157
HMKEEVMVPNVVGKELSAALLEMQVKELYPKLQLKYSNFVDDKGTVLEQSPPAGSIVKAGRRINLVVSRGA	0.106
HMKEIKAPNKINAHLIEEWRSQHPTELFPEEKVDLIYYKGEEYYFVIEEKNELGEIEEWYFAYDGGIDYV	0.372
HMKEILTNESIIQFVKDKVSEEQIIYKINNSPIDFKLDVNSMVSLAKQNVSSTIIIAMENAMNN	-1.28
HMKELLQEMIMDILRAIASPNIDIKRKTLDLVLDLITPRNIDNVTGMLKTEVVKSQSENTSDVG	-1.58

Sequence	soluble fraction (log2)
HMKELTYSDFRKAYPDIQGNLFGMAERYITALDWTEVAAKVETDEELRKERDIFYLVKTYIRKYVQ	-1.86
HMKELVAGQTVRVHHSIGFGQTGTVTALNSLKTTLPNGLRTNTASILFQNNEKVVLPISNFDIIES	-0.0164
HMKELVEDFASRISNARQSKGWNQSELAKRMAETVNVVKSAESGKSPTDSVIKKLERVLGIILM	-0.778
HMKEQLITVYVSGAVARPGLYELPAGIRAQEAVEAAGGFTEAANHEKVNLAKKLKDGSQVNVPALK	-0.122
HMKEQYDLNDREQQFISLVANGLNNKEIAETLFLSEGTVRNYLSNLLDKLGLRDRTQLAIFFYQHL	-2.01
HMKERLLDPYKDFIVNYLQKYPYTPAAVMHDKLKESYPDFPKVDPKTIYNFVMLLRRDFNIPKV	-0.842
HMKETERKILQAVLGLPLKYRDVIHLFYYEEMSVKEIAEVLHRQESTVTSQLTRARGILKKNL	0.264
HMKETLSDTVSRKLEDMITTQMKAGNRLPTEMVLAEMYSVGRSTIRESLKALSSKGLIVRKKDGTFVSDRV	-0.422
HMKEVKAPMPGMVLRVEVAPGQEVQEGDPLLVLEAMKMENNLKSPASGTIKSVHVEAGKAVEKGAVLVVF	-0.0661
HMKEVKRDQVIEAARKLFHQFGFKKVSMDEIAKEAGVTKKTIYMYFESKEELLKYFIQEEISN	-0.373
HMKEVVKVTITPSEKLKSQYPDALVSIDGKFYDLGILNNPVEFYMDKDHKISIIWSTAELVESFRI	-0.000631
HMKEYRKEGHLYFVTEDRNNEIYLWDFTDKPKHEFKEIITSVELQKVAKEGAMLQYKNGKYELYS	-0.78
HMKFDVNAAIRAVLNVTVDKGATLERIMKETNLTSDQLVLPIALLMKTERLHFKRSGTHEVYVSVGKAPDK	-3.79
HMKFGEQIKERRQELDLTQAEVAEKLFVTRQAVSNWEHNKTYPDLNMLVKISNVYQISLDSLLR	-1.37
HMKFHENLIALRRREGWSQEELGNRIGVTRQTVSKWELGLTTPELEKLVQLADVFGMTTDQLVGR	-0.295
HMKFNLWLSEKLKKLGLTQRKLAEQAGVSPATVSRWLSGEFEPDLTNLRKINQVLGVPERELFLQLGL	-0.193
HMKFPNVGENLRLLRQEMGISLDKASKMTGVSKAMLGQIERGESSPTVSTLWKISSGFKINFTTLLSE	-2.92
HMKFPPASDIRRMRKAIDVTQTELAKQSGVSQSTIAKIERGRISASYDTVVKLFETLDEMAK	-0.405
HMKFTPPTLEQIKNEMLLKTDEYNADIQSDRFFTYYDSNGWMVGKNKMKKFLVSLVAVFAATSA	-0.786
HMKFYIHEIIGFNAVDKVAGIVGKVININEDSPQKKLVVNYNGKEVFIPLVDEIVRKIDKQKNEVLITMP	0.00585
HMKGEIEELLYEEVTKDNNTTFLRIYIKLNDEYNTLLNLGIIGIKTEEKVNELVNLGYKKVL	-4.19
HMKGISRVTMELIIDALKKETEPRTVQWIAEKTGLATQTTYRYLQYMVSEQTVEALNVYGKVVSLKAK	-0.649
HMKGKWKPIILWQLSKAPQSLSGLRHSIAGISQKMLIQHLNELIHFGFVVRTTFEGYPLKVEYDLTDRGR	-0.196
HMKGLDAAVVDLFKSKGASIVFAGNRLSLSGEVADQATKDELLAKAKAILASLGASVSLDDKLMVKGAKAS	0.0761
HMKGMIKVASMSLGADLGLYSRHLKYLGIVHRVVEESGGQSVYIQKLNDLHTAKESLELYLKNELKI	-2.56
HMKGQNRSEITAGARVKVVQKQDQRTGALTEGIVRDILTRSPHHPHGIKVRLESGIVGRVKDVL	-0.312

Sequence	soluble fraction (log2)
HMKGSIMIETILKELKKNNKGFNFLLEKFDISEDELMKIINDLIHDKKVFLNSNNKYEIVSD	-0.72
HMKGTVLAPGIILNADDQRFTYLQEDVASVAKDGAAIVLKQGDEVDFIADGQTAKQIYLTKT	0.289
HMKGVPGIGDYVKLSGGSTVGKVLSISGKKAEVAFGLLRTTTELSKLEKVRKPKELLQSGVSS	-0.0317
HMKGVTVDGDNITVDGEKQTLISVNKNLDGDVVSYTYRTADGKLRTSRNVEVAQEINKQQLLKSIDAQ	0.0529
HMKGWPDREQAEKIWQQGIDYAIEHHTMSPQIVKEYIFHTQGIARSAALIAARLPDMDTEKAYVLGLLHD	-0.377
HMKIAEALNLRGDADSYERQEAIWLLEHIVGMSALELKYRGEQDLTEDQLQQYRSGLQRLEQGEPLAYVIG	-0.965
HMKIDLKQIEGVLDELAKVKGSLITILQKTQETYGYLPKEAIIYISERTGIAESEIMGVATFYTQFRL	-0.45
HMKIDLTPQEEKIYSVLETELTLDEIIMKTSIKAGEALAILMDLELKKLVASVAGGKYRRKA	0.386
HMKIEETLGKTAQVYIPIPQYLSGIGKVTLSVRGSLRELDAMTEEEKIPSNTIVRIVKVQDQVLFVKRA	-3.77
HMKIHNSIREITDFDRKQNSNIPSDAKYRIVFYTPQGNKTIIPEELQGLQYYRSKELAEIALNKKLNSN	-0.197
HMKILKQLEAIIEKEGLNESAKQFYLREISELDKEKQQEIINLVDKMEQAGFKNNLASAFSEVTEDIPQF	-0.138
HMKILNYQSLVGKKGITKSMLRPAGIVEIEGRRYDVVTRGEFIEPGKMITVDEVQGNRIIVQIERE	-0.758
HMKIPIIYQPLKNAKRIKIYIPYELKELRTIFKKINTTFWHPNQKLWSIIYTQENVALIKNLFGKNYKIVN	-0.499
HMKIQEVDYSTFLNMLNEKSIAQVEIQDNQIAFNSNQEGNKQIYVTGRIEEDTELVNRLQAAGVQFSRV	0.0484
HMKIRIIKTASNAKAVQIVSYKNNKRIVLQHIGSAHTDETLNDLKILAEEWIKDYNHQLSIF	-2.88
HMKISDLPAAQVYREIVHAWPKAAAYADLAPINNGGMQRWRDVVHEWVLRGYNPANLRGMLEWYKAGIPTR	-0.731
HMKISDMIETNLKFLRGKHSISQAELAESLGIPRTTLSAYERGFVEPNIELMLKMAKYFNVSLDDLIAYN	-2.07
HMKISQSRKAGKLVLESELKRGGVSLDQYRGGRMSRILELIGVKSLNELLTDLGTGKKTGALVAERFFSGL	-0.618
HMKITFNPVSSGRLDIILAEKTGYTRSYVKQLVEKQAVTINGEAAKKSGQNVKAGDEIALDEP	0.151
HMKITIDSVERDETFRLIWGTGWKPKNKIQELAAIQAKKNGLGRMNEVAGLAAWRGIWQQVAEQVAQEVL	-2.03
HMKITKIWFTADHIFGRDEEGKEYSQSLLWYPKLSAASDEERSQYTFGYDGIHWRSLDEDISFESF	-3.01
HMKIVFGHVKWFDIDKGFGFLVLEDEGGDVLLHANVLKNFGRTSVSEDTKIEFEFLETDKGRQVSTIYNIL	-3.28
HMKIVQDIAFSDFLNEVEKDNVLDVNIKGDLINGNLADGRKFKTYTPYDPNLIEKLSNKNVTINVEPYN	0.512
HMKKAENEKLNIPYDVTEFLASSIKDDIRMMEGAMVKLLALSSLTKQDITQSLAKRVIQDVLGSSA	-0.209
HMKKAMIISTKRGTPAAELDKIIREFEAKGLSVTMIRGTDYNVFGLVGDTTVIDEKQVRANPYVENVQRV	-0.157
